Test results from patent publication US20210277110A1 (Janssen / Centocor, published 2021).
Numbering of substitutions follows the chain as printed. Like-named read-outs stand apart in the source and are kept apart here.

Legend:
[1] = molecular target: T1, Extracellular domain of human PD1 (huPD1-ECD) (human, UniProt Q15116 25-169, biotinylated in the ligand inhibition assay (sites not given)); test: SPR, human PD-1 affinity
T1 construct: Expressed with a hexahistidine tag or as Fc fusion; also called biotinylated PD-1

[2] = molecular target: T1, Extracellular domain of human PD1 …; test: MSD ligand inhibition, competitor coated cynoPDL1-ECD
Protocol: (§1) The ligand inhibition assay design was MSD (Mescoscale Discovery) based. A MSD plate was directly coated with ligand (cynoPDL1-ECD, huPDL1-ECD or huPDL2-ECD) and incubated overnight at 4° C. The following day, the coating solution was removed and the plate was blocked. […] Depending on the panel of antibodies to be tested, the antibodies were tested as titrations or at a fixed concentration.

[3] = molecular target: T2, Full length human PD1 (huPD1) on cells (human, UniProt Q15116 25-288); test: flow cytometry, Jurkat cells
T2 construct: on T cells of human donors in the MLR and CMV assays (functional); also called PD-1 on Jurkat cells
Protocol: (§2) Jurkat cells were stimulated overnight with 20 ng/ml of PHA, harvested, washed, and checked for viability. The cells were then incubated at 6-10° C. for 45-60 minutes with various concentrations of test antibodies, washed and incubated at 6-10° C. for 45-60 minutes with FITC-labeled goat anti-human IgG. The cells were washed and fixed with BD Cytofix, refrigerated overnight and analyzed on a MACSQuant flow cytometer. The percentage of PD-1 positive cells at each antibody concentration was plotted vs log of the antibody concentration and EC₅₀ values were generated in Prism.

[4] = molecular target: T1, Extracellular domain of human PD1 …; test: MSD ligand inhibition, competitor coated huPDL1-ECD
Protocol: as §1

[5] = molecular target: T2, Full length human PD1 (huPD1) on cells; test: cell-based or functional assay
[6] = molecular target: T3, Extracellular domain of cyno PD1 (cPD1-ECD) (Macaca fascicularis (cynomolgus)); test: SPR ProteOn, cynoPD1-ECD; RANGE high replicate
T3 construct: Expressed with a hexahistidine tag or as Fc fusion; also called cynoPD1-ECD; cynoPD-1-ECD
T3 chain: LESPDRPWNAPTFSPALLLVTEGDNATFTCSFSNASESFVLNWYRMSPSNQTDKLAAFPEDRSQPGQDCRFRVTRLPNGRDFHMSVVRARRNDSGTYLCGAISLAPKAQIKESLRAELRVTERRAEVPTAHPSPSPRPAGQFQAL
Protocol: (§3) Affinity measurements using Surface Plasmon Resonance (SPR) were performed using a ProteOn XPR36 system. A biosensor surface was prepared by coupling a mixture of anti-IgG Fc modified alginate polymer layer surface of a GLC chip using the manufacturer instructions for amine-coupling chemistry. […] The collected data were processed and fitted to a Langmuir 1:1 binding model. The result for each mAb was reported in the format of kₒₙ (On-rate), koff (Off-rate) and KD (equilibrium dissociation constant).
(§4) STDEV were calculated for 3 or more replicates generated for human and cyno proteins. If less than 3 replicates were calculated, RANGE is indicated. RANGE is defined as the low and high values for the replicates tested. For samples without RANGE or STDEV, only one experiment was performed

[7] = molecular target: T1, Extracellular domain of human PD1 …; test: SPR ProteOn, huPD1-ECD; RANGE high replicate
Protocol: as §3, §4

[8] = molecular target: T3, Extracellular domain of cyno PD1 …; test: SPR ProteOn, captured mAb, cynoPD1-ECD analyte
Protocol: as §3
(§5) STDEV were calculated for 3 or more replicates generated for human and cyno proteins. If less than 3 replicates were calculated, RANGE was indicated. RANGE is defined as the low and high values for the replicates tested. For samples in the Table 10 or Table 11 without value indicated in RANGE or STDEV, only one experiment was performed.

[9] = molecular target: T3, Extracellular domain of cyno PD1 …; test: SPR ProteOn, cynoPD1-ECD; RANGE high replicate
[10] = molecular target: T1, Extracellular domain of human PD1 …; test: MSD ligand inhibition, competitor coated huPDL1-ECD; remark: listed apart in the source
Protocol: as §1

[11] = molecular target: T3, Extracellular domain of cyno PD1 …; test: SPR ProteOn, captured mAb, cynoPD1-ECD analyte
Protocol: as §3, §4

[12] = molecular target: T3, Extracellular domain of cyno PD1 …; test: SPR ProteOn, cynoPD1-ECD; RANGE low replicate
Protocol: as §3, §5

[13] = molecular target: T1, Extracellular domain of human PD1 …; test: SPR ProteOn, captured mAb; antigen species not given
[14] = molecular target: T3, Extracellular domain of cyno PD1 …; test: SPR ProteOn, cynoPD1-ECD; RANGE low replicate
Protocol: as §3, §4

[15] = molecular target: T1, Extracellular domain of human PD1 …; test: SPR ProteOn, huPD1-ECD; RANGE low replicate; RANGE low replicate
Protocol: as §3, §4

[16] = molecular target: T2, Full length human PD1 (huPD1) on cells; test: flow cytometry, PHA-stimulated Jurkat cells
Protocol: as §2

[17] = molecular target: T1, Extracellular domain of human PD1 …; test: MSD ligand inhibition, competitor coated cynoPDL1-ECD; remark: listed apart in the source
Protocol: The ligand inhibition assay design was MSD (Mescoscale Discovery) based. A MSD plate was directly coated with ligand (cynoPDL1-ECD, huPDL1-ECD or huPDL2-ECD) and incubated overnight at 4° C. The following day, the coating solution was removed and the plate was blocked. […] Depending on the panel of antibodies to be tested, the antibodies were tested as titrations or at a fixed concentration. […] The mAbs that were positive for inhibition of ligand binding at one concentration were also tested in dose responses for inhibition of various PD-1 ligands.
Select Fabs were cloned as IgG2sigma isotype and characterized for their Jurkat cell binding and cynomolgus PD-L1 ligand inhibition at concentrations 1 μg/ml and 10 μg/ml.

[18] = molecular target: T1, Extracellular domain of human PD1 …; test: SPR ProteOn, captured mAb, huPD1-ECD analyte
[19] = molecular target: T1, Extracellular domain of human PD1 …; test: MSD ligand inhibition, competitor coated cynoPDL1-ECD; remark: listed apart in the source
Protocol: as §1

[20] = molecular target: T1, Extracellular domain of human PD1 …; test: MSD ligand inhibition, competitor coated huPDL2-ECD
Protocol: as §1

[21] = molecular target: T1, Extracellular domain of human PD1 …; test: SPR ProteOn, huPD1-ECD; RANGE high replicate; RANGE high replicate
Protocol: as §3, §4

[22] = molecular target: T2, Full length human PD1 (huPD1) on cells; test: flow cytometry, PHA-stimulated Jurkat cells; remark: listed apart in the source
Protocol: as §2

[23] = molecular target: T1, Extracellular domain of human PD1 …; test: SPR ProteOn, huPD1-ECD; RANGE low replicate
Protocol: as §3, §4

[24] = molecular target: T1, Extracellular domain of human PD1 …; test: SPR ProteOn, captured mAb, huPD1-ECD analyte; remark: listed apart in the source
Protocol: as §3, §4

[25] = molecular target: T3, Extracellular domain of cyno PD1 …; test: SPR ProteOn, cynoPD1-ECD; RANGE high replicate; RANGE high replicate
Protocol: as §3, §4

[26] = molecular target: T3, Extracellular domain of cyno PD1 …; test: as above
[27] = molecular target: T1, Extracellular domain of human PD1 …; test: SPR ProteOn, comparison with PD1B114
[28] = molecular target: T3, Extracellular domain of cyno PD1 …; test: SPR ProteOn, comparison with PD1B114
[29] = molecular target: T3, Extracellular domain of cyno PD1 …; test: SPR ProteOn, cynoPD1-ECD; RANGE low replicate; RANGE low replicate
Protocol: as §3, §4

[30] = molecular target: T1, Extracellular domain of human PD1 …; test: SPR ProteOn, captured mAb, huPD1-ECD analyte; approximation (chi2 > 20%)
Protocol: as §3
STDEV were calculated for 3 or more replicates generated for human and cyno proteins. If less than 3 replicates were calculated, RANGE was indicated. RANGE is defined as the low and high values for the replicates tested.

T2 sequence (Q15116 25-288 limits assumed): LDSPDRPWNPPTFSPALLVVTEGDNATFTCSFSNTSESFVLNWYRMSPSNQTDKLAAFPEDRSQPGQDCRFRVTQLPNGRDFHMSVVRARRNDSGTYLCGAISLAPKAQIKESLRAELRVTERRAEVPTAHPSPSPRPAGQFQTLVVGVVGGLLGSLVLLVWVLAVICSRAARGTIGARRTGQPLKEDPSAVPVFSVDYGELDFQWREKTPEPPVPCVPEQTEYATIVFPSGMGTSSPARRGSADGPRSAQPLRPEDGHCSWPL
T1 sequence (Q15116 25-169 limits assumed): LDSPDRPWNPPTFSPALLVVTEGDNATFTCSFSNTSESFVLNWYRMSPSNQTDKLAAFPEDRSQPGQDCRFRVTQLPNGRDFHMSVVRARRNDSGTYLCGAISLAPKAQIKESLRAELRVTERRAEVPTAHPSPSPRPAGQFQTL

B1: PD1B131 (antibody, V domains shown)
VH: EVQLVESGGGLVQPGGSLRLSCAASGFAFSRYDMSWIRLAPGKGLESVAYISGGGANTYYLDNVKGRFTISRDNAKNSLYLQMNSLRAEDTAVYYCASPYLSYFDVWGQGTLVTVSS
VL: EIVMTQSPATLSVSPGERATLSCRASQSLSDYLHWYQQKPGQAPRLLIKSASQSISGIPARFSGSGSGTEFTLTISSLQSEDFAVYYCQNGHSFPYTFGQGTKLEIK
notes: Humanized variant of PD1B28; also called PD1H130/PD1L62
With B1 the Kd [1] was 0.127 nM, the koff [1] was 0.000105 s⁻¹ and the kon [1] was 827000 M⁻¹ s⁻¹. The IC50 [2] was 0.096 µg/mL, the “Jurkat cell binding relative to PD1B28” value [3] was 100% and the IC50 [4] was 0.079 µg/mL.

B2: PD1B132 (antibody, IgG2, V domains shown)
VH: B1 VH with I37V, L39Q
VL: B1 VL
notes: Humanized variant of PD1B28; also called PD1H129/PD1L62
B2 was tested, and the “CMV EC50, nM (IFN-γ induction)” value [5] was 0.07 nM, the Kd [1] was 0.096 nM and the koff [1] was 8.8e-05 s⁻¹. The kon [1] was 914000 M⁻¹ s⁻¹, the IC50 [2] was 0.079 µg/mL and the “Jurkat cell binding relative to PD1B28” value [3] was 100%. It also gave an IC50 [4] of 0.055 µg/mL.

B3: PD1B70 (antibody, V domains shown)
VH: QVQLVQSGAEVKKPGSSVKVSCKASGGTFSSYAISWVRQAPGQGLEWMGGIIPIFGTANYAQKFQGRVTITADESTSTAYMELSSLRSEDTAVYYCARGYVRATGMLDYWGQGTLVTVSS
VL: EIVLTQSPATLSLSPGERATLSCRASQSVSSYLAWYQQKPGQAPRLLIYDASNRATGIPARFSGSGSGTDFTLTISSLEPEDFAVYYCQQRSNWPLTFGQGTKVEIK
notes: Tested as IgG2sigma/kappa; also called PD1H107/PH9L3
For B3, the Kd [6] was 100 nM, the koff [6] was 0.0226 s⁻¹ and the kon [6] was 274000 M⁻¹ s⁻¹. The koff [7] was 0.0356 s⁻¹, the kon [7] was 800000 M⁻¹ s⁻¹ and the Kd [8] was 123 nM. The koff [8] was 0.0258 s⁻¹, the kon [8] was 210000 M⁻¹ s⁻¹ and the Kd [9] was 138 nM. For the same binder, the koff [9] was 0.0275 s⁻¹, the kon [9] was 225000 M⁻¹ s⁻¹ and the IC50 [10] was 0.04 µg/mL. It also gave a Kd [11] of 89 nM, a koff [11] of 0.0222 s⁻¹ and a kon [11] of 250000 M⁻¹ s⁻¹. For the same binder, the Kd [12] was 109 nM, the koff [12] was 0.0245 s⁻¹ and the kon [12] was 199000 M⁻¹ s⁻¹. It also gave a Kd [13] of 166 nM, a koff [13] of 0.0304 s⁻¹ and a kon [13] of 184000 M⁻¹ s⁻¹. The Kd [14] was 79.6 nM, the koff [14] was 0.0218 s⁻¹ and the kon [14] was 225000 M⁻¹ s⁻¹. For the same binder, the Kd [15] was 42.6 nM, the EC50 [16] was 0.69 µg/mL and the “percentage ligand not blocked at 1 µg/ml” value [17] was 6%. For the same binder, the “percentage ligand not blocked at 10 µg/ml” value [17] was 6%, the Kd [18] was 101 nM and the koff [18] was 0.0418 s⁻¹. For the same binder, the kon [18] was 415000 M⁻¹ s⁻¹, the IC50 [19] was 0.01 to 0.021 µg/mL and the IC50 [20] was 0.059 µg/mL. The Kd [21] was 48.3 nM, the EC50 [22] was 0.69 to 1.32 µg/mL and the koff [23] was 0.0341 s⁻¹. For the same binder, the kon [23] was 737000 M⁻¹ s⁻¹, the Kd [24] was 45.4 nM and the koff [24] was 0.0349 s⁻¹. The kon [24] was 769000 M⁻¹ s⁻¹.

B4: PD1B11 (antibody, V domains shown)
VH: QVQLVQSGAEVKKPGSSVKVSCKASGGTFSSYAISWVRQAPGQGLEWMGGIIPIFGTANYAQKFQGRVTITADESTSTAYMELSSLRSEDTAVYYCARPGLAAAYDTGSLDYWGQGTLVTVSS
VL: B3 VL
notes: Tested as IgG2sigma/kappa; also called PD1H3/PH9L3
With B4 the Kd [6] was 27.1 nM, the kon [6] was 350000 M⁻¹ s⁻¹ and the Kd [7] was 9.81 nM. The Kd [8] was 31.3 nM, the koff [8] was 0.00917 s⁻¹ and the kon [8] was 293000 M⁻¹ s⁻¹. For the same binder, the Kd [9] was 35.1 nM, the IC50 [10] was 0.019 µg/mL and the Kd [11] was 26.9 nM. For the same binder, the koff [11] was 0.00942 s⁻¹, the kon [11] was 350000 M⁻¹ s⁻¹ and the koff [25] was 0.00946 s⁻¹. For the same binder, the Kd [12] was 27.7 nM, the koff [12] was 0.008 s⁻¹ and the kon [12] was 285000 M⁻¹ s⁻¹. It also gave a koff [26] of 0.01 s⁻¹, a kon [26] of 301000 M⁻¹ s⁻¹ and a Kd [13] of 19.2 nM. For the same binder, the koff [13] was 0.00896 s⁻¹, the kon [13] was 468000 M⁻¹ s⁻¹ and the Kd [14] was 26.8 nM. For the same binder, the kon [14] was 349000 M⁻¹ s⁻¹, the koff [15] was 0.00867 s⁻¹ and the EC50 [16] was 0.05 µg/mL. The “percentage ligand not blocked at 1 µg/ml” value [17] was 5%, the “percentage ligand not blocked at 10 µg/ml” value [17] was 5% and the koff [18] was 0.00852 s⁻¹. The kon [18] was 516000 M⁻¹ s⁻¹, the IC50 [19] was 0.017 to 0.018 µg/mL and the “fold tighter affinity compared to PD1B114” value [27] was ~3 fold. The “fold tighter affinity compared to PD1B114” value [28] was ~2 fold, the koff [29] was 0.00938 s⁻¹ and the IC50 [20] was 0.029 µg/mL. The koff [21] was 0.00943 s⁻¹, the kon [21] was 982000 M⁻¹ s⁻¹ and the Kd [30] was ~17 nM. It also gave an EC50 [22] of 0.03 to 0.24 µg/mL, a Kd [23] of 9.6 nM and a kon [23] of 884000 M⁻¹ s⁻¹. For the same binder, the Kd [24] was 9.7 nM, the koff [24] was 0.00905 s⁻¹ and the kon [24] was 933000 M⁻¹ s⁻¹.
